{
  "source": "patent US20250295731A1",
  "key": {"α9β1 integrin [1]": {"target": "α9β1 integrin (UniProt Q13797)", "sequence (Q13797 30-1035, chain 1 of 2)": "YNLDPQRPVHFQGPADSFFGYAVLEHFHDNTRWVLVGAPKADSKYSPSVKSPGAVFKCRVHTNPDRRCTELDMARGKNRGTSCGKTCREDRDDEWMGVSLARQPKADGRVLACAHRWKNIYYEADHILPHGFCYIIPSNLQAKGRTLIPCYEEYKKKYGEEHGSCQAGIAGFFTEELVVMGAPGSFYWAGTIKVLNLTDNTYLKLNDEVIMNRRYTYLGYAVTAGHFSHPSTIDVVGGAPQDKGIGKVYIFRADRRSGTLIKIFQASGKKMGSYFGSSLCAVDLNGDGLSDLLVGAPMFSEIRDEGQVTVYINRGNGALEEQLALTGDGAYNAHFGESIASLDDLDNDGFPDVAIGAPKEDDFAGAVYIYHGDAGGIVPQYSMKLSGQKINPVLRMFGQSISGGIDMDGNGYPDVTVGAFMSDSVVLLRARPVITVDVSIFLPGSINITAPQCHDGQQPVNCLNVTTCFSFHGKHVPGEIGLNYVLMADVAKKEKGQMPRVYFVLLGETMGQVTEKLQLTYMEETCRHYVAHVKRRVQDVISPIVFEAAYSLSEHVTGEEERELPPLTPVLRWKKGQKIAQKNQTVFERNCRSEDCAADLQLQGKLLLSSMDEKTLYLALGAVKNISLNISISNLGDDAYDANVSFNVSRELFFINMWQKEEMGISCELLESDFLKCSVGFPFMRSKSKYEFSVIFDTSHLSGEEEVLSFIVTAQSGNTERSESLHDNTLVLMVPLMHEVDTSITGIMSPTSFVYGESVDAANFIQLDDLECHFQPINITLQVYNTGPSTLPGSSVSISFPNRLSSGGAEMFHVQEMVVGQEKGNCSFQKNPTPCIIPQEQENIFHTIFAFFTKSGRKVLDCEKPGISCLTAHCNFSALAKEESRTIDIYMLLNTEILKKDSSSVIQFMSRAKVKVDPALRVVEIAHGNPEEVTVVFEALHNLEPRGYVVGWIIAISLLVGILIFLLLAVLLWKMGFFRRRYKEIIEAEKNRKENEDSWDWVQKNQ", "sequence (P05556 21-798, chain 2 of 2, further chain)": "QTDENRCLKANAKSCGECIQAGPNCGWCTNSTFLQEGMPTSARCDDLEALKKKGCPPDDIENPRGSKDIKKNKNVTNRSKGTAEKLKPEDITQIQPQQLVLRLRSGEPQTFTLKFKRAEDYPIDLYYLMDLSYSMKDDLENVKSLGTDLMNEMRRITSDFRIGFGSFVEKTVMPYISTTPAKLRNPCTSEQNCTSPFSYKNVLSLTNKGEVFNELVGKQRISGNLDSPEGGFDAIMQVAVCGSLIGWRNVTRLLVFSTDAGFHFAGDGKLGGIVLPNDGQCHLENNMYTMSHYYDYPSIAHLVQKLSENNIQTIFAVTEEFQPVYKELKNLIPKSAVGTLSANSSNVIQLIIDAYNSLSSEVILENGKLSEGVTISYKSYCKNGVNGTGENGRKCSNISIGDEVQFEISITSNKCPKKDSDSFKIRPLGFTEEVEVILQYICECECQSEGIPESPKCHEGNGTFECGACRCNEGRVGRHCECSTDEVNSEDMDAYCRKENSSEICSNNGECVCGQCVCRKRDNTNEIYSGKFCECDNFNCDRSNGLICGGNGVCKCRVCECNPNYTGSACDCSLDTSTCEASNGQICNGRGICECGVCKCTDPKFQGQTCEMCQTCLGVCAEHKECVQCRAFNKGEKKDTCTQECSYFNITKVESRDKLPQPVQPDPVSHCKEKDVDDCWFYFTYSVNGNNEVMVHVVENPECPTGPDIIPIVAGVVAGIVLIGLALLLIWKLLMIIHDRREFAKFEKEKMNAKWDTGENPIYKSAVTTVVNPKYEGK", "test": "inhibition of α9LN18 cell adhesion to immobilized F9 fraction"}, "α9β1 integrin [2]": {"target": "α9β1 integrin (UniProt Q13797)", "test": "inhibition of α9LN18 cell adhesion to immobilized recombinant VCAM-1"}, "α9β1 integrin [3]": {"target": "α9β1 integrin (UniProt Q13797)", "test": "inhibition of α9+ cell adhesion to immobilized Fraction 9-4"}, "α9β1 integrin [4]": {"target": "α9β1 integrin (UniProt Q13797)", "test": "inhibition of α9+ cell adhesion to immobilized VCAM-1"}},
  "data": [
    {"substance": "CS-1 peptide EILDVPST", "values": [
      {"measurement": "concentration giving complete inhibition of cell adhesion", "setting": "α9β1 integrin [1]", "value": 500, "unit": "µM"},
      {"measurement": "concentration giving complete inhibition of cell adhesion", "setting": "α9β1 integrin [2]", "value": 500, "unit": "µM"}
    ]},
    {"substance": "VLO5, snake venom MLD-disintegrin", "values": [
      {"measurement": "IC50", "setting": "α9β1 integrin [3]", "value": 5.6, "unit": "nM"},
      {"measurement": "IC50", "setting": "α9β1 integrin [4]", "value": 3.2, "unit": "nM"}
    ]}
  ]
}
